We go through one molecule from patent publication US20220332804A1 (CSL INNOVATION, published 2022).

Holding throughout (assay): SPR, KD relative to WT C2;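 note: biacore SPR at 37 °C, anti-C2 mAbs captured on anti-human IgG chips with alanine or serine point mutants of C2 as analyte, KD from 1:1 fit compared with wild-type C2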
A general note: Surface plasmon resonance follows binding to a sensor surface in real time, without labels.

Test [1] addresses T1, human C2 G677A (human, UniProt P06681 21-752).
T1 sequence: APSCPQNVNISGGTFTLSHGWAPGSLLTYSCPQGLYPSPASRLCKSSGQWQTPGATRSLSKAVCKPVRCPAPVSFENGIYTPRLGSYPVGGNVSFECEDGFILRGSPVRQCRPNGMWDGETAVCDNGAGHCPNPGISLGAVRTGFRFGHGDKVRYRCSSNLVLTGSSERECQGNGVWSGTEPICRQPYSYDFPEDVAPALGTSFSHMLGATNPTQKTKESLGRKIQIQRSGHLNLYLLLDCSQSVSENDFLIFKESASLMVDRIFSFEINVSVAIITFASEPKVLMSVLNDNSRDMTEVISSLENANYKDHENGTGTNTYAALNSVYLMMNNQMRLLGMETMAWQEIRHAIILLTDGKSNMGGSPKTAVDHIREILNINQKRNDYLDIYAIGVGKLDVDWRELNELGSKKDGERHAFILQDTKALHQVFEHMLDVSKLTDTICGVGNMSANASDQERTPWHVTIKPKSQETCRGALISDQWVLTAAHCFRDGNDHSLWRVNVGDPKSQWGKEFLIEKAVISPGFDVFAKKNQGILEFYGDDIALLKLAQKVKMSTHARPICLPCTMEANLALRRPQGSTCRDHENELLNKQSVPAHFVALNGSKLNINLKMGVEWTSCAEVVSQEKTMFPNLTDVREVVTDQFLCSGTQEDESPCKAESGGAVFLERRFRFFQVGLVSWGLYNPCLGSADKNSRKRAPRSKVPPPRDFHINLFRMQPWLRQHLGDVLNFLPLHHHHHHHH

Test [2] addresses T2, human C2 A436S (human, UniProt P06681 21-752).
T2 sequence: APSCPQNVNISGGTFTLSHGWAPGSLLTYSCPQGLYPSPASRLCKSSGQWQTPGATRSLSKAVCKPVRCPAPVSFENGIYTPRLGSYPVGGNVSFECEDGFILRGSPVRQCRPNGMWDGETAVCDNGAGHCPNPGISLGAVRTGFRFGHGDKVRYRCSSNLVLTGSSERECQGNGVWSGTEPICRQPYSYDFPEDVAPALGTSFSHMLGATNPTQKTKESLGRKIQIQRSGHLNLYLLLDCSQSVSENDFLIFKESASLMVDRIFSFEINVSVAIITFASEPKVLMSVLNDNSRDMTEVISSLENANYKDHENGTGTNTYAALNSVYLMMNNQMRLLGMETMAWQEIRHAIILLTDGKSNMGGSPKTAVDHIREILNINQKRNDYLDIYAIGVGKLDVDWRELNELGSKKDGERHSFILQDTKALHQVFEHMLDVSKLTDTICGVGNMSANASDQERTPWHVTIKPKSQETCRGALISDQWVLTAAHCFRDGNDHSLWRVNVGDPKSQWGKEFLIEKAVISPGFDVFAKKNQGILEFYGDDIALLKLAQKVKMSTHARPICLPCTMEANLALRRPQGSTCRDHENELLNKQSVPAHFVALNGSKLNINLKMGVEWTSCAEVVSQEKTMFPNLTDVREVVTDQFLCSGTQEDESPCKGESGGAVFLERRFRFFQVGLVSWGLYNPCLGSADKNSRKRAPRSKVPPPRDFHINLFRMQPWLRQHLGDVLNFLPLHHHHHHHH

Test [3] concerns the target T3, human C2 K274A (human, UniProt P06681 21-752).
T3 sequence: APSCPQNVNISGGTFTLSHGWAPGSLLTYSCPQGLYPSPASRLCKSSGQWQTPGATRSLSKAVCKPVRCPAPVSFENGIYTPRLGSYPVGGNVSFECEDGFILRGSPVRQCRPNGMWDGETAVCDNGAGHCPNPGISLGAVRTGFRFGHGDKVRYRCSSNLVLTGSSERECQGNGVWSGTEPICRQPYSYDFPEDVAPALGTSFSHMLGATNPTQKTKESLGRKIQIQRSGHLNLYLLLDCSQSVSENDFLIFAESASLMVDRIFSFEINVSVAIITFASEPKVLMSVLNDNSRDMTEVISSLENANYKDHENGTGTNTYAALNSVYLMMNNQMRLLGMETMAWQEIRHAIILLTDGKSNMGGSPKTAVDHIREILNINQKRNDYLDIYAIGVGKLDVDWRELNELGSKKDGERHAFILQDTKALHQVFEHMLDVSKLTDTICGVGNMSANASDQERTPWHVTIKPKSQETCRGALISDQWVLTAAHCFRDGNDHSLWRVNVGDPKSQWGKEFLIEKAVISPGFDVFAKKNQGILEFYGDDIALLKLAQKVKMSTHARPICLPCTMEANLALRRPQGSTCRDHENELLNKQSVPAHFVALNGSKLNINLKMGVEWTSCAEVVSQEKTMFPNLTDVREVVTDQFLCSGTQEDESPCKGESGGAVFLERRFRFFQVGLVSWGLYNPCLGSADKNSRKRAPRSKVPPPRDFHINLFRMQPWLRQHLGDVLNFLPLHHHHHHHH

Test [4] addresses T4, human C2 D454A (human, UniProt P06681 21-752).
T4 sequence: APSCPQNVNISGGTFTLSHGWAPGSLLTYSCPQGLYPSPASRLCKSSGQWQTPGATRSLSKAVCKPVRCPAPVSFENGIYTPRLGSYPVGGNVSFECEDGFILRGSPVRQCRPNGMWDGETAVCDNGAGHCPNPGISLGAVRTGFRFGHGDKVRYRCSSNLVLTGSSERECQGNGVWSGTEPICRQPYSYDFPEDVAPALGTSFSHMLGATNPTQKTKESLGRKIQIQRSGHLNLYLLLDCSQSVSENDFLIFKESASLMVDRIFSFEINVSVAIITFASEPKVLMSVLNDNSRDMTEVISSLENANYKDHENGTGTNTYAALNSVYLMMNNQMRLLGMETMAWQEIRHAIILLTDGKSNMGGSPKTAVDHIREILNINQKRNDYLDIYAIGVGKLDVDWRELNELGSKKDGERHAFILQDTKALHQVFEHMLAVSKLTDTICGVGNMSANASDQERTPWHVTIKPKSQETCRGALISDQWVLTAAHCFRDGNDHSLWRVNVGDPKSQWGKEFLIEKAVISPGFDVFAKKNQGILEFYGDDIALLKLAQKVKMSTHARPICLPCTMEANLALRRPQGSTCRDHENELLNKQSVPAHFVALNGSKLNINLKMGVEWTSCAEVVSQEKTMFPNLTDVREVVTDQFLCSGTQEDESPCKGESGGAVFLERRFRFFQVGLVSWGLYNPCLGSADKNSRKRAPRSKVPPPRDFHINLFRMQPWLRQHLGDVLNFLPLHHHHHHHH

B1: RF16-242 (antibody, human IgG4 S228P, lambda, V domains shown)
VH: EVQLLQSGAEVKKPGESLKISCKGSGYSFTSYWIGWVRQMPGKGLEWMGIIYPGDSDTRYSPSFQGQVTISADKSISTAYLQWSSLKASDTAMYYCARRGHYGDYFDYWGQGTLVTVSS
VL: SYELTQPPSVSVSPGQTARITCSGDALPKKYAYWYHQKSGQAPVLVIYEDRRRPSEIPERFSGSSSGTMATLTITGAQVEDEGVYFCYSRDRAGNQRVFGGGTQLTVLG
notes: pH-dependent anti-C2 antibody from a phage display library
For B1, the Fold diff in test [1] is 1 fold; in test [2] it was 1 fold; in test [3] it was 12 fold; in test [4], 5 fold.
